# From patent US20040022780A1, “Serine protease and topical retinoid compositions useful for treatment of acne vulgarise and production of anti-aging effects” (priority 1997, published 2004)
# B1: trypsin (protein, UniProt P00760 24-246, looked up)
# Serine protease 1: IVGGYTCGANTVPYQVSLNSGYHFCGGSLINSQWVVSAAHCYKSGIQVRLGEDNINVVEGNEQFISASKSIVHPSYNSNTLNNDIMLIKLKSAASLNSRVASISLPTSCASAGTQCLISGWGNTKSSGTSYPDVLKCLKAPILSDSSCKSAYPGQITSNMFCAGYLEGGKDSCQGDSGGPVVCSGKLQGIVSWGSGCAQKNKPGVYTKVCNYVSWIKQTIASN
# notes: lyophilyzed trypsin from Sigma-Aldrich, a serine protease, in Hepes buffer mixed with GDL liposomes
# Tests used:
# Rhino mouse skin [1] = test: Transepidermal water loss (TEWL), evaporimeter on dorsal skin; type: in vivo; details: for TEWL: topical once daily for five days
# Excerpt: Rhino mice of Example 1 were topically treated with the trypsin compositions (0.001% (w/v)-1% (w/v)) of Example 2 once daily for five days. Animals were sacrificed at day 8 and image analysis was used to quantify the reduction in utriculi size. For image analysis, whole mount epidermis was processed and microscopic measurements were taken according to the methods described in Mezick as well as Bernerd et al., “The Rhino Mouse Model: The Effects of Topically Applied All-Trans Retinoic Acid and CD271 on the Fine Structure of the Epidermis and Urticuli Wall of Pseudocomedones,” 283(2) Arch. Dermatol. Res. 100-107 (1991) and Bouclier et al., “Quantification of Epidermal Histological Changes Induced by Topical Retinoids and CD271 in the Rhino Mouse Model Using a Standardizing Image Analysis Technique,” 4(2) Skin Pharmacol. 65-73 (1991) which are each incorporated herein by reference in their entirety. Empire Imagins Database version 1.1 was used on a Gateway 2000 P5-100 computer for capturing images. Image Pro Plus version 1.3 was used for measurements and Microsoft Excel version 5.0 for data processing. The mean utriculus diameter (μ) and the mean sebaceous gland size (μ^2) were calculated for each treatment group (3 Rhino mice), using 5 random fields, two measurements per field, per animal. Percent reduction in utriculi diameter was calculated in accordance with the methods described in Finley, D. J., “Parallel Line Assays, Statistical Method in Biological Assay,” Charles Griffen & Company Ltd. 69-104 (1978) which is incorporated herein by reference in its entirety.
# To further characterize the effect of trypsin on the Rhino mouse skin, we measured the transepidermal water loss (“TEWL”) using an “Evaporimeter EPI” evaporimeter available from Servomed AB by first normalizing the evaporimeter with the ambient humidity and then placing the probe on the dorsal skin of the test subject at which point a reading of TEWL was taken.
# [2] = tested on: hamster ear sebaceous gland; test: Hamster ear model, sebaceous gland size; type: in vivo, golden Syrian hamsters
# Description: The possible effect of trypsin on the sebaceous component of acne was evaluated using the hamster ear model system. Young golden Syrian hamsters, 45-55 grams upon arrival, were purchased from Charles River Laboratories (Wilmington, Mass.). The ventral side of the hamsters' right ears were treated daily with 10 μl of the trypsin composition of Example 2, five days a week for three weeks, while the left ears were used as untreated controls.
# Rhino mouse skin [3] = test: H&E histology of trypsin treated Rhino mouse skin; type: in vivo; details: 0.1% (w/v) trypsin in GDL liposomes daily for five days
# [4] = tested on: elastin fibers in Rhino mouse skin; test: Elastin staining of paraffin skin sections, Rhino mouse; type: in vivo; details: trypsin treated Rhino mice vs untreated
# Excerpt: To further study this elasticity effect, skin sections of Rhino mice from Example 1 treated with the trypsin composition of Example 2 were stained for elastin on paraffin sections in accordance with the methods set forth in Kligman, L. H., “Luna's Technique, A Beautiful Stain for Elastin,” 3(2) The Amer. J. of Dermatopathol. 199-200 (1981) which is incorporated herein by reference in its entirety.
# involucrin = test: RT-PCR gene expression in skin, involucrin; type: in vivo, Rhino mouse; details: trypsin (0.0001-0.01% (w/v)) daily for five days, dose dependent
# Description: Rhino mice of Example 1 were treated daily with trypsin compositions (0% (w/v), 0.0001% (w/v), 0.001% (w/v), and 0.01% (w/v)), as prepared in Example 2, for five days and sacrificed at day eight. The skins of vehicle treated mice and trypsin-treated mice were obtained as described in Example 3, then their total RNAs were extracted using “RNA Stat-60” reagent available from Tel-Test “B,” Inc. as described in Chomczymski, “Single Step Method of RNA Isolation By Acid Guanidinium Thiocyanate-phenol-chloroform extraction,” 162 Anal. Biochem. 156-59 (1987) which is incorporated herein by reference in its entirety. A sufficient amount of RNase-free DNase available from Promega, Corp. under the tradename “RQ1 RNase-free DNase” was then added to the extracted RNA from each mouse such that each respective product contained 200 ng of DNased-RNA using the procedure set forth in “RNase-free DNase” protocol published by Promega, Corp. (May, 1995). […]
# The PCR products were then analyzed on 2% agarose/ethidium bromide gels according to methods well-known in the art in order to compare the level of expression of certain genes in skins of trypsin-treated and untreated mice. […]
molecule,measurement,setting,value
B1,TEWL,Rhino mouse skin [1]; Trypsin 0.001% (w/v),29.53 ± 3.68 g/m^2h
same,TEWL,Rhino mouse skin [1]; Trypsin 0.005% (w/v),26.40 ± 1.77 g/m^2h
same,TEWL,Rhino mouse skin [1]; Trypsin 0.01% (w/v),28.53 ± 2.18 g/m^2h
same,TEWL,Rhino mouse skin [1]; Trypsin 0.05% (w/v),36.57 ± 2.07 g/m^2h
same,TEWL,Rhino mouse skin [1]; Trypsin 0.1% (w/v),42.80 ± 4.33 g/m^2h
same,TEWL,Rhino mouse skin [1]; Trypsin 0.5% (w/v),36.23 ± 1.24 g/m^2h
same,TEWL,Rhino mouse skin [1]; Trypsin 1.0% (w/v),42.00 ± 1.14 g/m^2h
same,trypsin concentration at which TEWL increase reached a plateau,Rhino mouse skin [1]; once daily for five days,~0.05 % (w/v)
same,TEWL compared with retinoid treatment given alone,Rhino mouse skin [1]; trypsin treated mice,lower than that for retinoid treatment given alone
same,Sebaceous Gland Size,"[2]; Trypsin 0.5% (w/v), 10 μl daily on ventral right ear, five days a week for three weeks",95043.0 ± 4269.1 μ^2
same,Percent Size Decrease (%) of sebaceous gland,"[2]; Trypsin 0.5% (w/v), vs. liposome vehicle",−0.36 (vs. liposome %
same,effect on the size of the sebaceous gland,"[2]; hamster ear, daily, five days a week for three weeks",no effect
same,inflammatory cells in skin histology,Rhino mouse skin [3],no inflammatory cells
same,epidermis histology (H&E),Rhino mouse skin [3]; vs untreated,hyperplastic with an increase in the number of cell layers
same,elastin fibers around the utriculi and the sebaceous glands,[4],increased in thickness and density
same,level of involucrin,involucrin,increased
